From the supplement of paper PMC9732359
± gives the uncertainty stated by the source.

Test: protein stability index of a GFP-peptide fusion (yeast GPS) (PSI 1-4); higher = more stable; sorted into four equal gates, so the index is relative within each strain
Summary of the method: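 Peptides tiling yeast proteins in 17-residue segments were fused downstream of GFP, with Cherry expressed from the same plasmid. As a pooled library in yeast, mid-log cultures grown in leucine-free medium were sorted into four equal gates by GFP/Cherry fluorescence ratio. Gate plasmids were PCR-amplified and Illumina-sequenced, and barcodes linked reads to strains. Each peptide received a protein stability index equal to the sum of each gate's read frequency times its gate number.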

Row | Sequence | protein stability index (doa10∆) | protein stability index (pdr5∆) | protein stability index (san1∆) | protein stability index (ubr1∆)
1 | LNFSTTAPANTTDANGS [MED2] | 2.06 ± 0.061 | 2.08 ± 0.051 | 2.58 ± 0.056 | 2.78 ± 0.057
2 | SKVVIDSIIDNIVKLCF [IRR1] | 2.75 ± 0.079 | 2.32 ± 0.034 | 2.2 ± 0.089 | 2.45 ± 0.026
3 | SFKGSPNERKAKQAKIR [SNF2] | 3.36 ± 0.12 | 3.56 ± 0.12 | 3.39 ± 0.18 | 3.12 ± 0.15
4 | LTIFDSVDESARIKDAF [YJL039C/NUP192] | 3.01 ± 0.11 | 3.07 ± 0.094 | 3.19 ± 0.051 | 3.02 ± 0.093
5 | NVEMEEDVLVNQILMSV [RPL1A] | 2.83 ± 0.13 | 3.14 ± 0.1 | 1.61 ± 0.15 | 2.92 ± 0.083
6 | AKEKERMLEEAIDHLKA [YIL149C/MLP2] | 3.03 ± 0.05 | 3.12 ± 0.054 | 3.16 ± 0.056 | 3.01 ± 0.049
7 | QFNAITGLNGSGKSNIL [SMC2] | 3.31 ± 0.17 | 2.99 ± 0.13 | 3.18 ± 0.099 | 3.34 ± 0.067
8 | ENIIQMEMIENRTMDGK [FAS1] | 2.78 ± 0.084 | 2.81 ± 0.11 | 2.81 ± 0.12 | 3.02 ± 0.069
9 | LTEEELKTRYVGRQDPK [RPN11] | – | 3.36 ± 0.13 | 3.26 ± 0.14 | 3.56 ± 0.21
10 | IQELEDQRDELLEQKKS [ITC1] | 3.21 ± 0.067 | 3.11 ± 0.055 | 3.24 ± 0.045 | 3.31 ± 0.061
11 | VSCYRPRRDGERKRKSV [RPS6A] | 1.79 ± 0.22 | 2.91 ± 0.17 | 3.51 ± 0.13 | 3.38 ± 0.082
12 | FGAKPEEQKSSDTSKPA [YJL041W/NSP1] | 3.23 ± 0.083 | 2.91 ± 0.084 | 3.32 ± 0.088 | 3.11 ± 0.09
13 | QLAGKSGEDTNVGLPIL [YOR098C/NUP1] | 2.86 ± 0.15 | 3.32 ± 0.084 | 3.36 ± 0.062 | 3.25 ± 0.052
14 | VSSSKNKKSEENEMIKP [SWP82] | 2.72 ± 0.25 | 3.34 ± 0.14 | 3.18 ± 0.14 | 3.49 ± 0.28
15 | TFGKPEEEDSILSLEQS [YCS4] | 3.19 ± 0.091 | 3.19 ± 0.074 | 3.14 ± 0.057 | 3.13 ± 0.095
16 | MAPLSLNFKDDKKYKGL [REC8] | 2.66 ± 0.089 | 2.61 ± 0.14 | 2.47 ± 0.065 | 2.47 ± 0.075
17 | SAIDVLDPLTKDPVDFV [RPN2] | 3.21 ± 0.088 | 3.29 ± 0.076 | 3.15 ± 0.074 | 3.12 ± 0.096
18 | YRCFAQLELRQLNASIS [RRI2] | 3.06 ± 0.2 | 3.24 ± 0.2 | 3.12 ± 0.16 | 3.39 ± 0.17
19 | MYGLTMEWPKDMLKYKE [ITC1] | 3.53 ± 0.17 | 3.1 ± 0.28 | – | 3.07 ± 0.2
20 | KIAERSLLLKNYLNDMH [SKP1] | 2.55 ± 0.12 | 2.54 ± 0.07 | 1.81 ± 0.17 | 1.78 ± 0.067
21 | IRDNKLVSEKIINSTAL [RPC82] | 3.24 ± 0.2 | 3.24 ± 0.12 | 2.99 ± 0.19 | 3.14 ± 0.11
22 | DKHLYHVLYKESKGNAF [RPL19A] | 3.56 ± 0.16 | 3.39 ± 0.089 | 2.96 ± 0.11 | 2.77 ± 0.084
23 | NEYRLAFYQVTPEEDEE [RPL22A] | 2.52 ± 0.077 | 2.61 ± 0.071 | 2.75 ± 0.073 | 2.69 ± 0.087
24 | FLDGIYVSHKGFITEDL [RPL9A] | 2.38 ± 0.081 | 2.62 ± 0.063 | 2.43 ± 0.1 | 3.29 ± 0.07
25 | HIPRLIPKQLLDDEKIF [YJL039C/NUP192] | 1.44 ± 0.18 | 1.54 ± 0.088 | 1.87 ± 0.19 | 1.31 ± 0.08
26 | SLYIFFTTLLESKQDGL [YML103C/NUP188] | 2.29 ± 0.12 | 1.42 ± 0.085 | 1.25 ± 0.1 | 1.19 ± 0.036

Row | Sequence | protein stability index (doa10∆) | protein stability index (pdr5∆) | protein stability index (san1∆) | protein stability index (ubr1∆)
27 | NKQSVSNLSPDLKFKRH [DSN1] | 2.95 ± 0.11 | 2.61 ± 0.22 | 3.32 ± 0.089 | 2.34 ± 0.2
28 | ANVELTPSNIRSLCEVL [RPC34] | 1.32 ± 0.053 | 1.68 ± 0.064 | 1.69 ± 0.078 | 2.02 ± 0.07
29 | GLAPDARVLSNYLRQQC [PRE5] | 2.72 ± 0.19 | 2.11 ± 0.21 | – | 1.47 ± 0.28
30 | RKLAVERAGHLLCDKAQ [PRE5] | 3.47 ± 0.15 | 3.18 ± 0.11 | 3.12 ± 0.072 | 3.37 ± 0.14
31 | KEFKGIKVTVQLKIQNR [RPL12A] | 1.3 ± 0.08 | 1.62 ± 0.071 | – | 2.4 ± 0.09
32 | EIESIDKLPQFVDENTF [RPN1] | 3.08 ± 0.13 | 3.4 ± 0.22 | 3.09 ± 0.085 | 3.32 ± 0.1
33 | LPLNKPRLEKLINEILL [RGR1] | 2.53 ± 0.051 | 2.33 ± 0.041 | 2 ± 0.077 | 2.48 ± 0.041
34 | RYKPGTVALREIRRFQK [HHT1] | 3.19 ± 0.11 | 2.97 ± 0.091 | 3.07 ± 0.065 | 3.07 ± 0.078
35 | NNRQLPYLVANVVEVMD [RPT5] | 2.4 ± 0.11 | 2.78 ± 0.07 | 2.58 ± 0.14 | 2.71 ± 0.074
36 | PDPRSTVIPEDEEIIQL [RPO21] | 2.65 ± 0.081 | 2.75 ± 0.087 | 2.79 ± 0.077 | 2.66 ± 0.063
37 | RFQKCFPPGVIGIDEGS [RPC40] | 2.15 ± 0.11 | 2.15 ± 0.22 | – | 2.43 ± 0.18
38 | MSVERGIRWELISRLCP [RPT1] | 1.73 ± 0.052 | 2.17 ± 0.048 | 1.88 ± 0.07 | 1.93 ± 0.034
39 | ELEGSFNKSAELSRIEN [YCS4] | 2.58 ± 0.13 | 3.22 ± 0.23 | 3.12 ± 0.087 | 3.11 ± 0.12
40 | KLQENRTLLTEEIEPKL [SMC2] | 2.91 ± 0.2 | 3.29 ± 0.18 | 2.76 ± 0.15 | 3.19 ± 0.14
41 | QRDLGLYVVGLFDTYHA [RRP6] | 2.38 ± 0.046 | 2.53 ± 0.043 | 1.91 ± 0.062 | 2.57 ± 0.033
42 | PHQSPDATRVFVNGVWH [RPB2] | 2.84 ± 0.061 | 3.05 ± 0.056 | 2.98 ± 0.047 | 3.15 ± 0.045
43 | HHRIFDSSAHFKGALTI [YMR129W/POM152] | 2.56 ± 0.073 | 2.73 ± 0.084 | 2.44 ± 0.14 | 2.62 ± 0.053
44 | ANNDINSLLSNFNDIPP [YDL088C/ASM4] | 2.56 ± 0.097 | 2.87 ± 0.18 | 2.67 ± 0.27 | 3.13 ± 0.14
45 | NNESSDDMDIDEVNDRS [PCI8] | 3.09 ± 0.086 | 3.17 ± 0.072 | 3.05 ± 0.061 | 3.09 ± 0.081
46 | ETGYMSRRLMKSLEDLS [RPO31] | 2.45 ± 0.12 | 3.13 ± 0.25 | 3.02 ± 0.15 | –
47 | DLIETSFTCFAQFVSNK [NUT1] | 2.64 ± 0.093 | 2.01 ± 0.075 | 1.92 ± 0.11 | 2.77 ± 0.076
48 | ALECRLASAIASGLLRA [CSN12] | 1.58 ± 0.072 | 2.08 ± 0.082 | 1.77 ± 0.1 | 1.94 ± 0.075
49 | EELVSLAVFLFDIYNRD [YJL039C/NUP192] | 2.03 ± 0.099 | 1.24 ± 0.059 | 1.41 ± 0.2 | 1.39 ± 0.071
50 | TLVNKSTGLKSASDALK [RPS1A] | 2.94 ± 0.11 | 3.1 ± 0.11 | 3.42 ± 0.092 | 3.23 ± 0.074
51 | CASIPIAIIKDTSDIIV [RRP46] | 1.73 ± 0.044 | 1.88 ± 0.043 | 1.75 ± 0.065 | 1.6 ± 0.04
52 | NVGLCITIYDLLTVEEG [RPC25] | 1.45 ± 0.091 | 1.26 ± 0.067 | 1.45 ± 0.16 | 1.57 ± 0.076
